# Data: the DeepSol protein solubility set
# Experiment: soluble on expression in E. coli; label from the status in PepcDB or PDB records
row,Sequence,soluble on expression in E. coli
1,GPVWRKHYITYRINNYTPDMNREDVDYAIRKAFQVWSNVTPLKFSKINTGMADILVVFARGAHGDDHAFDGKGGILAHAFGPGSGIGGDAHFDEDEFWTTHSGGTNLFLTAVHEIGHSLGLGHSSDPKAVMFPTYKYVDINTFRLSADDIRGIQSLYGDPKENQRLPNPDNSEPALCDPNLSFDAVTTVGNKIFFFKDRFFWLKVSERPKTSVNLISSLWPTLPSGIEAAYEIEARNQVFLFKDDKYWLISNLRPEPNYPKSIHSFGFPNFVKKIDAAVFNPRFYRTYFFVDNQYWRYDERRQMMDPGYPKLITKNFQGIGPKIDAVFYSKNKYYYFFQGSNQFEYDFLLQRITKTLKSNSWFGC,soluble
2,GPWKGGRGRAASLLPLNRALGTTRPHKEGEVPGVDYIFITVEDFMELEKSGALLESGTYEDNYYGTPKPPAEPAPLLLNVTDQILPGATPSAEGKRKRNKSVSNMEKASIEPPEEEEEERPVVNGNGVVVTPESSEHEDKSAGASGEMPSQPYPAPVYSQPEELKEQMDDTKPTKPEDNEEPDPLPDNWEMAYTEKGEVYFIDHNTKTTSWLDPRLAKKAKPPEECKENELPYGWEKIDDPIYGTYYVDHINRRTQFENPVLEAKRKLQQHNMPHTELGTKPLQAPGFREKPLFTRDASQLKGTFLSTTLKKSNMGFGFTIIGGDEPDEFLQVKSVIPDGPAAQDGKMETGDVIVYINEVCVLGHTHADVVKLFQSVPIGQSVNLVLCRGYPLPFDPEDPANSMVPPLAIMERPPPVMVNGRHNYETYLEYISRTSQSVPDITDRPPHSLHSMPTDGQLDGTYPPPVHDDNVSMASSGATQAELMTLTIVKGAQGFGFTIADSPTGQRVKQILDIQGCPGLCEGDLIVEINQQNVQNLSHTEVVDILKDCPIGSETSLIIHRGGFFSPWKTPKPIMDRWENQGSPQTSLSAPAIPQNLPFPPALHRSSFPDSTEAFDPRKPDPYELYEKSRAIYESRRPDYKELDVHLRRMESGFGFRILGGDEPGQPILIGAVIAMGSADRDGRLHPGDELVYVDGIPVAGKTHRYVIDLMHHAARNGQVNLTVRRKVLCGGEPCPENGRSPGSVSTHHSSPRSDYATYTNSNHAAPSSNASPPEGFASHSLQTSDVVIHRKENEGFGFVIISSLNRPESGSTITVPHKIGRIIDGSPADRCAKLKVGDRILAVNGQSIINMPHADIVKLIKDAGLSVTLRIIPQEELNSPTSAPSSEKQSPMAQQSPLAQQSPLAQPSPATPNSPIAQPAPPQPLQLQGHENSYRSEVKARQDVKPDIRQPPFTDYRQPPLDYRQPPGGDYQQPPPLDYRQPPLLDYRQHSPDTRQYPLSDYRQPQDFDYFTVDMEKGAKGFGFSIRGGREYKMDLYVLRLAEDGPAIRNGRMRVGDQIIEINGESTRDMTHARAIELIKSGGRRVRLLLKRGTGQVPEYDEPAPWSSPAAAAPGLPEVGVSLDDGLAPFSPSHPAPPSDPSHQISPGPTWDIKREHDVRKPKELSACGQKKQRLGEQRERSASPQRAARPRLEEAPGGQGRPEAGRPASEARAPGLAAADAADAARAGGKEAPRAAAGSELCRREGPGAAPAFAGPGGGGSGALEAEGRAGARAGPRPGPRPPGGAPARKAAVAPGPWKVPGSDKLPSVLKPGASAASR,soluble
3,GQEVTMWGDSHGVAPNQVRRTLVKVALSESLPPGAKQIRIGFSLPKETEEKVTALYLLVSDSLAVRDLPDYKGRVSYDSFPISKEDRTTALSADSVAGRRFFYLAADIGPVASFSRSDTLTARVEEVAVDGRPLPLKELSPASRRLYRGY,not soluble
4,GQTTIQVRVPYRVVGLVVGPKGATIKRIQQRTHTYIVTPGRDKEPVFAVTGMPENVDRAREEIEAHITLR,soluble
5,GSAGKFIVIFKNDVSEDKIRETKDEVIAEGGTITNEYNMPGMKGFAGELTPQSLTKFQGLQGDLIDSIEEDGIVTTQ,soluble
6,GSALRELKVCLLGDTGVGKSSIMWRFVEDSFDPNINPTIGASFMTKTVQYQNELHKFLIWDTAGLERFRALAPMYYRGSAAAIIVYDITKEETFSTLKNWVRELRQHGPPSIVVAIAGNKCDLTDVREVMERDAKDYADSIHAIFVETSAKNAININELFIEISRRIPST,soluble
7,GSAPAKEPSVNTALVPQLSTISRALTPSPVMVLENIEPEIVYAGYDSSKPDTAENLLSTLNRLAGKQMIQVVKWAKVLPGFKNLPLEDQITLIQYSWMSLSSFALSWRSYKHTNSQFLYFAPDLVFNEEKMHQSAMYELCQGMHQISLQFVRLQLTFEEYTIMKVLLLLSTIPKDGLKSQAAFEEMRTNYIKELRKMVTKCPNNSGQSWQRFYQLTKLLDSMHDLVSDLLEFCFYTFRESHALKVEFPAMLVEIISDQLPKVESGNAKPLYFHRK,soluble
8,GSASKICQFKLVLLGESAVGKSSLVLRFVKGQFHEYQESTIGAAFLTQSVCLDDTTVKFEIWDTAGQERYHSLAPMYYRGAQAAIVVYDITNQETFARAKTWVKELQRQASPSIVIALAGNKADLANKRMVEYEEAQAYADDNSLLFMETSAKTAMNVNDLFLAIAKKLPKSEPQNLGG,soluble
9,GSCKLPVKKATVVYQGERVKIQEKFKNGMLHGDKVSFFCKNKEKKCSYTEDAQCIDGTIEVPKCFKEHSSLAFWKTDASDVKPCA,soluble
10,GSDALVGRLVKSSWDMKSLDLHSMLVETMSKSDHVLIVGFGRGGQTVGRVLAQEDIPYFALDLDIARVQVARSAGEPVSFGDAKRREVLEAAGLGRAKMVVVTLNNMHETQHVLDNVLSMYPNMPVYVRATNDDYVKTFTDIGAEEAVSDTKETGLVLAGYAMLGNGASYRHVYQTMANIRHSRYAALEGLFVGSDDEAGFGENGETVRHAFPLAAEAYAVGKTVGTLPMAAYGIKLLFVRRRTGRIENPDASFTLEGGDVLVVAGKKEEIISFENWSLQGI,not soluble
11,GSDKIHHHHHHMLTMKDIIRDGHPTLRQKAAELELPLTKEEKETLIAMREFLVNSQDEEIAKRYGLRSGVGLAAPQINISKRMIAVLIPDDGSGKSYDYMLVNPKIVSHSVQEAYLPTGEGCLSVDDNVAGLVHRHNRITIKAKDIEGNDIQLRLKGYPAIVFQHEIDHLNGVMFYDHIDKNHPLQPHTDAVEV,soluble
12,GSDNESDEEVAGKKSFSAQEREYIRQGKEATAVVDQILAQEENWKFEKNNEYGDTVYTIEVPFHGKTFILKTFLPCPAELVYQEVILQPERMVLWNKTVTACQILQRVEDNTLISYDVSAGAAGGVVSPRDFVNVRRIERRRDRYLSSGIATSHSAKPPTHKYVRGENGPGGMIVLKSASNPRVCTFVWILNTDLKGRLPRYLIHQSLAATMFEFAFHLRQRISELGAR,soluble
13,GSGKSLLLKVILLGDGGVGKSSLMNRYVTNKFDSQAFHTIGVEFLNRDLEVDGRFVTLQIWDTAGQERFKSLRTPFYRGADCCLLTFSVDDRQSFENLGNWQKEFIYYADVKDPEHFPFVVLGNKVDKEDRQVTTEEAQTWCMENGDYPYLETSAKDDTNVTVAFEEAVRQVLAVEEQLE,soluble
14,GSHHPFTAQIVAVTASGYDSEKGHVPANIADGDVKTRWAASGESWVQLELDKEQSIENILIVPFKPTERKLKFSIFYSNDGKNWQPLAEGLETSSADKNGEKLTFTPVTAKYIKLDTFGTDVNNWSAINEIAINSAAALPSRAIK,soluble
15,GSHMARGKLKAPKWPILKNLELLQAQNYSRNIKTFPYKELNKSMYYDKWVCMCRCEDGALHFTQLKDSKTITTITTPNPRTGGEHPAIISRGPCNRLLLLYPGNQITILDSKTNKVLREIEVDSANEIIYMYGHNEVNTEYFIWADNRGTIGFQSYEDDSQYIVHSAKSDVEYSSGVLHKDSLLLALYSPDGILDVYNLSSPDQASSRFPVDEEAKIKEVKFADNGYWMVVECDQTVVCFDLRKDVGTLAYPTYTIPEFKTGTVTYDIDDSGKNMIAYSNESNSLTIYKFDKKTKNWTKDEESALCLQSDTADFTDMDVVCGDGGIAAILKTNDSFNIVALTP,soluble
16,GSHMASMTGGQQMGRGSNNGDICIKDSINTLWTGINPPPNCQIVENTNTNDGKLTLVLVKNGGLVNGYVSLVGVSDTVNQMFTQKTANIQLRLYFDSSGNLLTEESDLKIPLKNKSSTATSETVASSKAFMPSTTAYPFNTTTRDSENYIHGICYYMTSYDRSLFPLNISIMLNSRMISSNVAYAIQFEWNLNASESPESNIATLTTSPFFFSYITEDDN,soluble
17,GSHMASSEDEKLSFEAVRNIHKLMDDDANGDVDVEESDEFLREDLNYHDPTVKHSTFHGEDKLISVEDLWKAWKSSEVYNWTVDEVVQWLITYVELPQYEETFRKLQLSGHAMPRLAVTNTTMTGTVLKMTDRSHRQKLQLKALDTVLFG,soluble
